# B1: 2644960: IMAGE clone protein: Kit, kit oncogene (protein, UniProt P05532 25-979, looked up)
# Mast/stem cell growth factor …: SQPSASPGEPSPPSIHPAQSELIVEAGDTLSLTCIDPDFVRWTFKTYFNEMVENKKNEWIQEKAEATRTGTYTCSNSNGLTSSIYVFVRDPAKLFLVGLPLFGKEDSDALVRCPLTDPQVSNYSLIECDGKSLPTDLTFVPNPKAGITIKNVKRAYHRLCVRCAAQRDGTWLHSDKFTLKVRAAIKAIPVVSVPETSHLLKKGDTFTVVCTIKDVSTSVNSMWLKMNPQPQHIAQVKHNSWHRGDFNYERQETLTISSARVDDSGVFMCYANNTFGSANVTTTLKVVEKGFINISPVKNTTVFVTDGENVDLVVEYEAYPKPEHQQWIYMNRTSANKGKDYVKSDNKSNIRYVNQLRLTRLKGTEGGTYTFLVSNSDASASVTFNVYVNTKPEILTYDRLINGMLQCVAEGFPEPTIDWYFCTGAEQRCTTPVSPVDVQVQNVSVSPFGKLVVQSSIDSSVFRHNGTVECKASNDVGKSSAFFNFAFKGNNKEQIQAHTLFTPLLIGFVVAAGAMGIIVMVLTYKYLQKPMYEVQWKVVEEINGNNYVYIDPTQLPYDHKWEFPRNRLSFGKTLGAGAFGKVVEATAYGLIKSDAAMTVAVKMLKPSAHLTEREALMSELKVLSYLGNHMNIVNLLGACTVGGPTLVITEYCCYGDLLNFLRRKRDSFIFSKQEEQAEAALYKNLLHSTEPSCDSSNEYMDMKPGVSYVVPTKTDKRRSARIDSYIERDVTPAIMEDDELALDLDDLLSFSYQVAKGMAFLASKNCIHRDLAARNILLTHGRITKICDFGLARDIRNDSNYVVKGNARLPVKWMAPESIFSCVYTFESDVWSYGIFLWELFSLGSSPYPGMPVDSKFYKMIKEGFRMVSPEHAPAEMYDVMKTCWDADPLKRPTFKQVVQLIEKQISDSTKHIYSNLANCNPNPENPVVVDHSVRVNSVGSSASSTQPLLVHEDA
# B2: 2654352: IMAGE clone protein: Fgfr2, fibroblast growth factor receptor 2 (protein, UniProt P21803 22-821, looked up)
# Fibroblast growth factor …: RPSFSLVEDTTLEPEEPPTKYQISQPEAYVVAPGESLELQCMLKDAAVISWTKDGVHLGPNNRTVLIGEYLQIKGATPRDSGLYACTAARTVDSETWIFMVNVTDAISSGDDEDDTDSSEDVVSENRSNQRAPYWTNTEKMEKRLHACPAANTVKFRCPAGGNPTSTMRWLKNGKEFKQEHRIGGYKVRNQHWSLIMESVVPSDKGNYTCLVENEYGSINHTYHLDVVERSPHRPILQAGLPANASTVVGGDVEFVCKVYSDAQPHIQWIKHVEKNGSKNGPDGLPYLKVLKAAGVNTTDKEIEVLYIRNVTFEDAGEYTCLAGNSIGISFHSAWLTVLPAPVREKEITASPDYLEIAIYCIGVFLIACMVVTVIFCRMKTTTKKPDFSSQPAVHKLTKRIPLRRQVTVSAESSSSMNSNTPLVRITTRLSSTADTPMLAGVSEYELPEDPKWEFPRDKLTLGKPLGEGCFGQVVMAEAVGIDKDKPKEAVTVAVKMLKDDATEKDLSDLVSEMEMMKMIGKHKNIINLLGACTQDGPLYVIVEYASKGNLREYLRARRPPGMEYSYDINRVPEEQMTFKDLVSCTYQLARGMEYLASQKCIHRDLAARNVLVTENNVMKIADFGLARDINNIDYYKKTTNGRLPVKWMAPEALFDRVYTHQSDVWSFGVLMWEIFTLGGSPYPGIPVEELFKLLKEGHRMDKPTNCTNELYMMMRDCWHAVPSQRPTFKQLVEDLDRILTLTTNEEYLDLTQPLEQYSPSYPDTSSSCSSGDDSVFSPDPMPYEPCLPQYPHINGSVKT
# B3: 3482498: IMAGE clone protein: Tek, endothelial-specific receptor tyrosine kinase (protein, UniProt Q02858 23-1122, looked up)
# Angiopoietin-1 receptor: AMDLILINSLPLVSDAETSLTCIASGWHPHEPITIGRDFEALMNQHQDPLEVTQDVTREWAKKVVWKREKASKINGAYFCEGRVRGQAIRIRTMKMRQQASFLPATLTMTVDRGDNVNISFKKVLIKEEDAVIYKNGSFIHSVPRHEVPDILEVHLPHAQPQDAGVYSARYIGGNLFTSAFTRLIVRRCEAQKWGPDCSRPCTTCKNNGVCHEDTGECICPPGFMGRTCEKACEPHTFGRTCKERCSGPEGCKSYVFCLPDPYGCSCATGWRGLQCNEACPSGYYGPDCKLRCHCTNEEICDRFQGCLCSQGWQGLQCEKEGRPRMTPQIEDLPDHIEVNSGKFNPICKASGWPLPTSEEMTLVKPDGTVLQPNDFNYTDRFSVAIFTVNRVLPPDSGVWVCSVNTVAGMVEKPFNISVKVLPEPLHAPNVIDTGHNFAIINISSEPYFGDGPIKSKKLFYKPVNQAWKYIEVTNEIFTLNYLEPRTDYELCVQLARPGEGGEGHPGPVRRFTTASIGLPPPRGLSLLPKSQTALNLTWQPIFTNSEDEFYVEVERRSLQTTSDQQNIKVPGNLTSVLLSNLVPREQYTVRARVNTKAQGEWSEELRAWTLSDILPPQPENIKISNITDSTAMVSWTIVDGYSISSIIIRYKVQGKNEDQHIDVKIKNATVTQYQLKGLEPETTYHVDIFAENNIGSSNPAFSHELRTLPHSPASADLGGGKMLLIAILGSAGMTCITVLLAFLIMLQLKRANVQRRMAQAFQNREEPAVQFNSGTLALNRKAKNNPDPTIYPVLDWNDIKFQDVIGEGNFGQVLKARIKKDGLRMDAAIKRMKEYASKDDHRDFAGELEVLCKLGHHPNIINLLGACEHRGYLYLAIEYAPHGNLLDFLRKSRVLETDPAFAIANSTASTLSSQQLLHFAADVARGMDYLSQKQFIHRDLAARNILVGENYIAKIADFGLSRGQEVYVKKTMGRLPVRWMAIESLNYSVYTTNSDVWSYGVLLWEIVSLGGTPYCGMTCAELYEKLPQGYRLEKPLNCDDEVYDLMRQCWREKPYERPSFAQILVSLNRMLEERKTYVNTTLYEKFTYAGIDCSAEEAA
# Test system: autophosphorylation (phosphotyrosine)
# Assay: In vitro kinase library screen: autophosphorylation
# Assay type: biochemical
# Conditions: not given
# Outline: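 Biotinylated SYK and EphA7 from in vitro transcription/translation, immobilized on streptavidin/avidin plates; autophosphorylation overnight at room temperature with 5 mM MgCl2, 5 mM MnCl2, 100 μM ATP, pH 7.4. Phosphotyrosine detected by Sulfo-TAG anti-phosphotyrosine (45 min) and ECL read-out.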
row,Molecule,ECL signal
1,B1,"88,966"
2,B2,"180,059"
3,B3,"84,706"

# Test system: pEY
# Assay: In vitro kinase library screen: activity towards pEY
# Assay type: biochemical
# Conditions: 5 ul of expressed protein
# Outline: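 Kinases made by in vitro transcription/translation, immobilised on streptavidin/avidin plates and washed with Tris/Triton and high-salt buffers. Incubated overnight at room temperature with 5 nM pEY, 100 µM ATP, Mg2+/Mn2+ and vanadate at pH 7.4. Phospho-pEY captured with biotinylated PY20 and detected by Sulfo-TAG anti-phosphotyrosine ECL.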
row,Molecule,HTS signal
1,B1,"9,164"
2,B2,"296,481"
3,B3,"10,287"
